Assay results from patent US20050112126A1 (Genentech, published 2005).
Changes are numbered by the printed parent chain. Numbers in names are those of the source.

T1: VEGF121 (human, UniProt P15692 27-147)
T1 construct: mature; Immobilized on the biosensor chip via primary amino groups; also called Purified VEGF121
T1 sequence (looked up): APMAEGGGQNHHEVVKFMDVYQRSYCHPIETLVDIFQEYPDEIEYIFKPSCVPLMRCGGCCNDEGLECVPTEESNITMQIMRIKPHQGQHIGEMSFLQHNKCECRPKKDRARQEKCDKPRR

B1: hu2.1 (Fab, name in Kabat numbering, V domains shown)
VH: EVQLVESGGGLVQPGGSLRLSCAASGYTFTNYGMNWIRQAPGKGLEWVGWINTYTGEPTYAADFKRRFTISRDNSKNTVYLQMNSLRAEDTAVYYCAKYPHYYGSSHWYFDVWGQGTLVTVSS
VL: DIQMTQSPSSLSASVGDRVTITCSASQDISNYLNWYQQKPGKAPKLLIYFTSSLHSGVPSRFSGSGSGTDYTLTISSLQPEDFATYYCQQYSTVPWTFGQGTKVEIK
notes: soluble Fab with human constant domains
B2: hu2.10 (Fab, V domains shown)
VH: B1 VH with R72L, N74T, K76A, N77S
VL: B1 VL
notes: Soluble Fab with human constant domains; also called consensus clone hu2.10
B3: hu2.10V (Fab, V domains shown)
VH: B1 VH with R72L, N74T, K76A, N77S
VL: B1 VL with L46V
notes: Soluble Fab with human constant domains; also called hu2.10 with mutation VL Leu->Val
B4: hu2.7 (Fab, name in Kabat numbering, V domains shown)
VH: B1 VH
VL: B1 VL with M4L, Y71F
notes: as for B1
B5: hu2.2 (Fab, name in Kabat numbering, V domains shown)
VH: B1 VH
VL: B1 VL with M4L
notes: as for B1
B6: hu2.6 (Fab, name in Kabat numbering, V domains shown)
VH: B1 VH with F68T, R72L, N74T, K76A, N77S
VL: B1 VL with M4L, Y71F
notes: as for B1
B7: pY0192 VL H55A (Fab, V domains shown)
VH: EVQLVESGGGLVQPGGSLRLSCAASGYTFTNYGINWVRQAPGKGLEWVGWINTYTGEPTYAADFKRRFTFSLDTSKSTAYLQMNSLRAEDTAVYYCAKYPHYYGSSHWYFDVWGQGTL
VL: DIQLTQSPSSLSASVGDRVTITCRANEQLSNYLNWYQQKPGKAPKVLIYFTSSLASGVPSRFSGSGSGTDFTLTISSLQPEDFATYYCQQYSTVPWTFGQGTKVEIKR
notes: Ala-scan variant of pY0192; Fab on phage
B8: pY0192 VL L33A (Fab, V domains shown)
VH: B7 VH
VL: B7 VL with L33A, A55H
notes: as for B7
B9: pY0192 VL S53A (Fab, V domains shown)
VH: B7 VH
VL: B7 VL with S53A, A55H
notes: as for B7
B10: pY0192 VL V94A (Fab, V domains shown)
VH: B7 VH
VL: B7 VL with A55H, V94A
notes: as for B7
B11: pY0192 VL S92A (Fab, V domains shown)
VH: B7 VH
VL: B7 VL with A55H, S92A
notes: as for B7
B12: pY0192 VL T51A (Fab, V domains shown)
VH: B7 VH
VL: B7 VL with T51A, A55H
notes: as for B7
B13: pY0192 VL T93A (Fab, V domains shown)
VH: B7 VH
VL: B7 VL with A55H, T93A
notes: as for B7
B14: pY0192 VL Q28A (Fab, V domains shown)
VH: B7 VH
VL: B7 VL with Q28A, A55H
notes: as for B7
B15: pY0192 VL S56A (Fab, V domains shown)
VH: B7 VH
VL: B7 VL with A55H, S56A
notes: as for B7
B16: pY0192 VL N26A (Fab, V domains shown)
VH: B7 VH
VL: B7 VL with N26A, A55H
notes: as for B7
B17: pY0192 VL S30A (Fab, V domains shown)
VH: B7 VH
VL: B7 VL with S30A, A55H
notes: as for B7
B18: pY0192 VL R24A (Fab, V domains shown)
VH: B7 VH
VL: B7 VL with R24A, A55H
notes: as for B7
B19: pY0192 VL L54A (Fab, V domains shown)
VH: B7 VH
VL: B7 VL with L54A, A55H
notes: as for B7
B20: pY0192 VL T97A (Fab, V domains shown)
VH: B7 VH
VL: B7 VL with A55H, T97A
notes: as for B7
B21: pY0192 VL Y32A (Fab, V domains shown)
VH: B7 VH
VL: B7 VL with Y32A, A55H
notes: Ala-scan variant of pY0192; Fab on phage; also called Y32A (VL)
B22: pY0192 VL N34A (Fab, V domains shown)
VH: B7 VH
VL: B7 VL with N34A, A55H
notes: as for B7
B23: pY0192 VL Q89A (Fab, V domains shown)
VH: B7 VH
VL: B7 VL with A55H, Q89A
notes: as for B7
B24: pY0192 VL Y91A (Fab, V domains shown)
VH: B7 VH
VL: B7 VL with A55H, Y91A
notes: as for B7
B25: pY0192 VL N31A (Fab, V domains shown)
VH: B7 VH
VL: B7 VL with N31A, A55H
notes: Ala-scan variant of pY0192; Fab on phage; also called N31A (VL)
B26: pY0192 VL P95A (Fab, V domains shown)
VH: B7 VH
VL: B7 VL with A55H, P95A
notes: as for B7
B27: pY0192 VL L29A (Fab, V domains shown)
VH: B7 VH
VL: B7 VL with L29A, A55H
notes: as for B7
B28: pY0192 VL S52A (Fab, V domains shown)
VH: B7 VH
VL: B7 VL with S52A, A55H
notes: as for B7
B29: pY0192 VL Q90A (Fab, V domains shown)
VH: B7 VH
VL: B7 VL with A55H, Q90A
notes: as for B7

Molecular target: T1, VEGF121
Assay: BIAcore SPR, Fab over immobilized VEGF121
Protocol: VEGF₁₂₁ was covalently immobilized on the biosensorchip via primary amino groups. Binding of humanized A4.6.1 Fab variants was measured by flowing solutions of Fab in PBS/0.05% TWEEN 20™ over the chip at a flow rate of 20 μL/min. Following each binding measurement, residual Fab was stripped from the immobilized ligand by washing with 5 μL of 50 mM aqueous HCl at 3 μL/min. Binding profiles were analyzed by nonlinear regression using a simple monovalent binding model (BIAevaluation software v2.0; Pharmacia).

Row | Binder | KD(A4.6.1)/KD(mut) as headed (values read as KD(mut)/KD(A4.6.1)) | Kd | koff | kon | fold tighter KD than hu2.0 | fold improvement in KD vs hu2.10
1 | B1 | 170 ratio | 260 nM | 0.0018 s⁻¹ | 7000 M⁻¹ s⁻¹ | – | –
2 | B2 | 35 ratio | 55 nM | 0.00035 s⁻¹ | 6300 M⁻¹ s⁻¹ | ≥ 125 fold | –
3 | B3 | 5.8 ratio | 9.3 nM | 0.00018 s⁻¹ | 20000 M⁻¹ s⁻¹ | – | 6 fold
4 | B4 | 230 ratio | 360 nM | 0.0024 s⁻¹ | 6700 M⁻¹ s⁻¹ | – | –
5 | B5 | 210 ratio | 340 nM | 0.0016 s⁻¹ | 4700 M⁻¹ s⁻¹ | – | –
6 | B6 | 40 ratio | 67 nM | 0.00045 s⁻¹ | 6700 M⁻¹ s⁻¹ | – | –

Molecular target: T2, VEGF (human, UniProt P15692-4 27-191, limits assumed)
T2 construct: Biotinylated in the KDR-IgG ELISA, amine-coupled to the chip in BIAcore; also called biotinylated VEGF; vascular endothelial growth factor
T2 sequence (P15692 other isoform, or with tags, fused parts or gaps limits assumed): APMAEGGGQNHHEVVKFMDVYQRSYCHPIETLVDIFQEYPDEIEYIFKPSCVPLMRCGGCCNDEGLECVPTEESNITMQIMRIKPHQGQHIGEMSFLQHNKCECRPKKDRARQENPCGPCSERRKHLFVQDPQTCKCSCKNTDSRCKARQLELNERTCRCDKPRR
Assay: competitive phage-ELISA, relative to pY0192
Protocol: In such an assay, phages were first serially diluted to determine a fractional saturation titer which was then held constant and used to incubate with varying concentrations of VEGF (starting at 200 nM to 0 nM) in solution. The mixture was then transferred onto plate precoated with VEGF (2 μg/mL) and blocked with 5% instant milk, and allowed to equilibrate for 1 hour at room temperature. Thereafter, the phage solution was removed and the remaining bound phages were detected with a solution of rabbit anti-phage antibody mixed with goat anti-rabbit conjugate of horse radish peroxidase. After an hour incubation at room temperature, the plate was developed with a chromogenic substrate, o-phenylenediamine (Sigma). The reaction was stopped with addition of ½ volume of 2.5 M H₂SO₄. Optical density at 492 nm was measured on a spectrophotometric plate reader.
IC50's were determined in a competitive phage-ELISA assay.

Row | Binder | IC50 (mut)/IC50 (wt)
7 | B7 | 1 ratio
8 | B8 | 2 ratio
9 | B9 | 1 ratio
10 | B10 | 2 ratio
11 | B11 | 1 ratio
12 | B12 | 1 ratio
13 | B13 | 1 ratio
14 | B14 | 1 ratio
15 | B15 | 1 ratio
16 | B16 | 1 ratio
17 | B17 | 2 ratio
18 | B18 | 1 ratio
19 | B19 | 1 ratio
20 | B20 | 1 ratio
21 | B21 | 2 ratio
22 | B22 | 4 ratio
23 | B23 | 4 ratio
24 | B24 | 14 ratio
25 | B25 | 2 ratio
26 | B26 | 3 ratio
27 | B27 | 1 ratio
28 | B28 | 1 ratio
29 | B29 | 3 ratio
